Assays:
Aβ(M1-40) (human) = assay: cell-based or functional assay
Aβ(M1-42) (human) = assay: cell-based or functional assay
Sequence of Aβ(M1-42) (human) (peptide, as listed by the source): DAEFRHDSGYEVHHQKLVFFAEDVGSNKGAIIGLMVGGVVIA

Sequence of Aβ(M1-40) (human) (peptide, as listed by the source): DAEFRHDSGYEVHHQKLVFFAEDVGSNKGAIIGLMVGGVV

- molar equivalents needed for the same inhibition of Aβ40 aggregation (ThT assay) (molar equivalents) (Aβ(M1-40) (human)): 0.01
- effect on Aβ42 aggregation (ThT assay) (molar equivalents) (Aβ(M1-42) (human)): 0.1
Substance: human anti-thrombin (from UniProt P01008 33-464)
